Experimental data as given in patent US20060105320A1.

Tests used:
[1] = target: biotinylated NM^K184C seed (Saccharomyces cerevisiae) (UniProt P05453); assay: capture of biotinylated seed on Streptavidin-coated Dynabeads, SDS wash, scintillation counting
[2] = target: NM (N-terminal and middle region of Sup35p), soluble / unpolymerized (Saccharomyces cerevisiae) (UniProt P05453); assay: cell-based or functional assay
Chain of NM (N-terminal and middle region of Sup35p), soluble / unpolymerized (Saccharomyces cerevisiae) (P05453 1-253): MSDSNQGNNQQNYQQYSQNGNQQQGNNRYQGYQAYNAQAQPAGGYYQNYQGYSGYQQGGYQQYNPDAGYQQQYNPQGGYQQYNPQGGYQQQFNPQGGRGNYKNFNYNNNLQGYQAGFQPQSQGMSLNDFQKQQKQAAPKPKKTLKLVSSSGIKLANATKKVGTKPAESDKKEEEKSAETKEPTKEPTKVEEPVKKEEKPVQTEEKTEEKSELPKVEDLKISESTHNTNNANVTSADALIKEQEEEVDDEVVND

Chain of biotinylated NM^K184C seed (Saccharomyces cerevisiae) (P05453 1-253 K184C): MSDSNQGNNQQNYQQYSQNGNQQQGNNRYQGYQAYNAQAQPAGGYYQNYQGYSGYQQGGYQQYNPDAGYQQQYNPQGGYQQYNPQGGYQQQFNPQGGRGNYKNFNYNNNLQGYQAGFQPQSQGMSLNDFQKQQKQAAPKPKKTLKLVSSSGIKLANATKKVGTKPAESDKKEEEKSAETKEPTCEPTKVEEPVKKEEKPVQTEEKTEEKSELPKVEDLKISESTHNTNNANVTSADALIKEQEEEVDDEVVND

| Substance | fraction of seed-bound NM soluble in SDS [1] | IC50 of inhibition of NM fibrillization, no nucleotide [2] | IC50 of inhibition of NM fibrillization, with ADP [2] | IC50 of inhibition of NM fibrillization, with AMP-PNP [2] | IC50 of inhibition of NM fibrillization, with ATP hydrolysis [2] |
| --- | --- | --- | --- | --- | --- |
| NM^T158C-iodo[1-^14C]acetamide (soluble) (from UniProt P05453 1-253) | 50% | – | – | – | – |
| Hsp104 (from UniProt P31539 1-908) (enzyme) | – | 7.6 µM | 3.1 µM | 0.2 µM | 0.1 µM |
